Patent US8129592B2, “Plant isoflavonoid hydroxylases and methods of use thereof” (The Samuel Roberts Noble Foundation, Inc., priority 2003, dated 2012)

Experiments:
[1] = substrate: COc1ccc(-c2coc3cc(O)ccc3c2=O)cc1; assay: Hydroxylase assay with yeast microsomes expressing recombinant MtCYP81E9 (I3′H); type: biochemical, Medicago truncatula; conditions: other: 2 mM NADPH and pH 8.0, 25.0 °C
Protocol: (§1) After induction with 20% galactose for ˜18 h, yeast cells was harvested, weighed, and immediately processed for microsomal fractionation.
(§2) After incubation at ˜80 rpm for 30 to 40 min, spheroplasts were centrifuged down for 5 min, washed twice with Zymolyase buffer B, and then twice with phosphate buffer A (0.1 M potassium phosphate pH 8.0, 1 M sorbitol, 14 mM 2-mercaptoethanol). The spheroplasts were re-suspended in a minimum vol of phosphate buffer B (0.1 M potassium phosphate pH 8.0, 0.4 M sucrose, 14 mM β-mercaptoethanol, 1 mM PMSF and 1× protein inhibitor cocktail (Roche Diagnostics GmbH, Mannheim, German), and 1 vol of glass beads (diameter at 0.45/0.50 mm) was added. Samples were vigorously vortexed at 4° C., with the quality of cell disruption checked under the microscope. The supernatant was then removed and the beads washed four times with phosphate buffer B. Supernatants were pooled and centrifuged at 12,000 g for 10 min; the resulting supernatant was then ultracentrifuged at 140,000 g for 90 min. The supernatant was discarded and the pellet washed briefly with phosphate buffer C (0.1 M potassium phosphate, pH 8.0, 0.4 M sucrose, 0.5 mM glutathione), and re-suspended in the same buffer plus 5% glycerol at about 12 mg total protein/ml. Protein was quantified using a Bio-Rad protein assay kit (Bio-Rad, Hercules, Calif.).
(§3) Hydroxylase assays were performed in phosphate buffer C in a total volume of 150 μl containing 2 mM NADPH, 40 μM isoflavone substrate and 40˜70 pmol P450 protein. Reactions were incubated at 25° C. for 1.5 h (over which period the reactions were linear) with gentle shaking and stopped by extracting twice with 500 μl of ethyl acetate. The extracts were combined, evaporated under N2, re-suspended in 60 μl of methanol, and analyzed by HPLC or LC-MS. All assays to determine enzyme specificity were carried out in duplicate. For kinetic studies, the isoflavone concentration was varied at a fixed concentration of NADPH (2 mM), and kinetic constants calculated from initial rate data using Lineweaver-Burke double reciprocal plots. All kinetic analyses were carried out in triplicate.
(§4) Reaction products from enzyme assays (30 μl) were analyzed by HPLC.
(§5) Product identification was firstly based on comparisons of chromatographic behavior and UV spectra with authentic standards. Identifications were then confirmed by HPLC-MS, using a HP 1100 liquid chromatograph coupled to a Bruker Esquire Ion-Trap mass spectrometer equipped with an electrospray source. HPLC separation was achieved using a J. T. Baker Bakerbond reverse-phase column (C18, 5 μm, 4.6 mm×250 mm, J. T. Baker, Philipsberg, N.J.). […] Mass spectra were recorded over a range of 50-2200 m/z.

[2] = substrate: COc1ccc(-c2coc3cc(O)cc(O)c3c2=O)cc1; assay: as above; type: biochemical, Medicago truncatula; conditions: other: 2 mM NADPH and pH 8.0, 25.0 °C
Protocol: as §1, §2, §3, §4, §5

B1: I3′H (MtCYP81E9) (Medicago truncatula) (protein)
chain: MTLFYYSLLSLSFIITIKILLKITSRRLKNLPPGPPTIPIIGNLHHLKHPLHRTFTTLSQTYGDIFSLWFGSRLVVVVSSPSLAHECFTKNDIILANRPRFLTGKYIFYNYTTLGSASYGDHWRNLRRITTIDVLSNNRLNSFLGVRRDETNRLIQKLLKDVVSEGFGFTKVELRPRLTEMTFNAMMRMISGKRYYGDDGDVSDVEEAKQFREIISEMMSLLGANNKGDFLPLLRVVDLDNLEKRCKRIAKRSNAFLEGLIEEHRRGNIHSDGGTMIDHLLKLSESQPEYYSDHLIKGLIQGMLLAGTDTSAVTIEWVMSELLNHPEVLKKAKEELDTQIGKNKLVDEQDLSKLPYLQNIISETLRLHPPAPLLLPHYSSEDCTIGEFNVPKDTIILTNVWGIHRDPKHWNDALSFKPERFEKEEEVNKVMAFGLGRRACPGLSLAQRTVGFTVGLLIQCFEWERESEEKLDMMEGKGITMPMKIPLRAMCKALPIANDVTK
notes: made in house; host or cells: Saccharomyces cerevisiae WAT11, vector YeDP60; microsomal fraction
[1]
  Km: 49.7 µM
  kcat: 0.028 s⁻¹
[2]
  Km: 112.6 µM
  kcat: 0.1 s⁻¹
